The chains are these.
B1: IL-6-6449 (ssDNA)
DNA: TGTGTATAAGTCGCGAGGTTTGAATGCGAACCATCGGCGCCAACAAAACATTCAAACAGAAATCTACTAGTCAC
modifications: thiol

In paper PMC11819540, “A new method for the reproducible development of aptamers (Neomers)” one finds Kd data, which are given here for three molecules.

As a reminder, the Kd is the concentration at which binding is half-saturated. Low values mean tighter binding, high ones weaker binding.

This data set deals with Interleukin 6 (IL-6) (Homo sapiens, UniProt P05231 30-212). As to the kind of experiment: SPRi; SPRi running buffer: 400 mM 6-aminohexanoic acid, 2 mM TETA, 100 mM NaCl, pH 5.7 ± 0.1, 25 °C; aptamers immobilized on gold, protein in flow at 50 µL/min. As to conditions: protein: commercial.
Interleukin 6 (IL-6), sequence (P05231 30-212): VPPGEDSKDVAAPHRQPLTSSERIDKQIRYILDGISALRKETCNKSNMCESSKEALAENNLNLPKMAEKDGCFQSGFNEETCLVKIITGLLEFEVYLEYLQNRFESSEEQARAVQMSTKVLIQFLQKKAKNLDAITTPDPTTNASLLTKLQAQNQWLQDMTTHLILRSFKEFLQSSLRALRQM
For the molecule B1, the affinity, expressed as Kd, was 0.0321 µM.
The value for GTCCTGAGGTGTGAATACAAACCATCGG (ssDNA, thiol) [IL-6-4202.1] was 0.0732 µM.
The value for CAAGAGGGTTGAATTGCAACCATCGGC (ssDNA, thiol) [IL-6-7326.1] was 0.027 µM.
